Three molecules from patent US20180134794A1 (Regeneron, published 2018) can be followed below.

For assay [1], the target named is T1, human MET (c-Met, hepatocyte growth factor receptor), endogenous on human cell lines (human, UniProt P08581 25-1390). Put plainly: cell-based or functional assay.
Assay [2] has as its target T1, human MET (c-Met, hepatocyte growth …). Put plainly: cell-based or functional assay. The source holds these as a separate data set.
For assay [3] the target is unchanged. Put plainly: flow cytometry, A549 cells (endogenous MET), antibody 10 ug/ml. The protocol: (§1) After one additional wash with FACS buffer, samples were fixed with Cytofix (BD Biosciences, #554655), filtered with FACS buffer and run on an iQue flow cytometer (Intelicyte). Mean fluorescence intensity (MFI) data was determined using FlowJo software (FlowJo LLC).

For assay [4] the target is unchanged. Put plainly: flow cytometry, EBC-1 cells (endogenous MET), antibody 10 ug/ml. The protocol:
as §1

Assay [5] has the same target. Put plainly: flow cytometry, SNU-5 cells (endogenous MET), antibody 10 ug/ml. As to the method:
as §1

The target is the same in assay [6]. Put plainly: flow cytometry, Hs746t cells (endogenous MET), antibody 10 ug/ml. As to the method: as §1
For assay [7] the target is unchanged. Put plainly: flow cytometry, MKN-45 cells (endogenous MET), antibody 10 ug/ml. The protocol:
as §1

Assay [8] shares this target. Put plainly: flow cytometry, U87MG cells (endogenous MET, low), antibody 10 ug/ml. As to the method:
as §1

Assay [9] has the same target. Put plainly: flow cytometry, MDA-MB-231 cells (endogenous MET, low), antibody 10 ug/ml. The protocol: as §1
Assay [10] shares this target. Put plainly: flow cytometry, NCI-H1993 cells (endogenous MET), antibody 10 ug/ml; expressed as fold above unstained. The protocol: as §1
Assay [11] addresses T2, human MET (c-Met, HGFR) endogenously expressed on cell lines (human, UniProt P08581 25-1390). Put plainly: cell-based or functional assay.
Assay [12] concerns the target T2, human MET (c-Met, HGFR) endogenously …. Put plainly: cell-based or functional assay. This is another data set of the same source.

T1 sequence (P08581 25-1390 limits assumed, form in doubt): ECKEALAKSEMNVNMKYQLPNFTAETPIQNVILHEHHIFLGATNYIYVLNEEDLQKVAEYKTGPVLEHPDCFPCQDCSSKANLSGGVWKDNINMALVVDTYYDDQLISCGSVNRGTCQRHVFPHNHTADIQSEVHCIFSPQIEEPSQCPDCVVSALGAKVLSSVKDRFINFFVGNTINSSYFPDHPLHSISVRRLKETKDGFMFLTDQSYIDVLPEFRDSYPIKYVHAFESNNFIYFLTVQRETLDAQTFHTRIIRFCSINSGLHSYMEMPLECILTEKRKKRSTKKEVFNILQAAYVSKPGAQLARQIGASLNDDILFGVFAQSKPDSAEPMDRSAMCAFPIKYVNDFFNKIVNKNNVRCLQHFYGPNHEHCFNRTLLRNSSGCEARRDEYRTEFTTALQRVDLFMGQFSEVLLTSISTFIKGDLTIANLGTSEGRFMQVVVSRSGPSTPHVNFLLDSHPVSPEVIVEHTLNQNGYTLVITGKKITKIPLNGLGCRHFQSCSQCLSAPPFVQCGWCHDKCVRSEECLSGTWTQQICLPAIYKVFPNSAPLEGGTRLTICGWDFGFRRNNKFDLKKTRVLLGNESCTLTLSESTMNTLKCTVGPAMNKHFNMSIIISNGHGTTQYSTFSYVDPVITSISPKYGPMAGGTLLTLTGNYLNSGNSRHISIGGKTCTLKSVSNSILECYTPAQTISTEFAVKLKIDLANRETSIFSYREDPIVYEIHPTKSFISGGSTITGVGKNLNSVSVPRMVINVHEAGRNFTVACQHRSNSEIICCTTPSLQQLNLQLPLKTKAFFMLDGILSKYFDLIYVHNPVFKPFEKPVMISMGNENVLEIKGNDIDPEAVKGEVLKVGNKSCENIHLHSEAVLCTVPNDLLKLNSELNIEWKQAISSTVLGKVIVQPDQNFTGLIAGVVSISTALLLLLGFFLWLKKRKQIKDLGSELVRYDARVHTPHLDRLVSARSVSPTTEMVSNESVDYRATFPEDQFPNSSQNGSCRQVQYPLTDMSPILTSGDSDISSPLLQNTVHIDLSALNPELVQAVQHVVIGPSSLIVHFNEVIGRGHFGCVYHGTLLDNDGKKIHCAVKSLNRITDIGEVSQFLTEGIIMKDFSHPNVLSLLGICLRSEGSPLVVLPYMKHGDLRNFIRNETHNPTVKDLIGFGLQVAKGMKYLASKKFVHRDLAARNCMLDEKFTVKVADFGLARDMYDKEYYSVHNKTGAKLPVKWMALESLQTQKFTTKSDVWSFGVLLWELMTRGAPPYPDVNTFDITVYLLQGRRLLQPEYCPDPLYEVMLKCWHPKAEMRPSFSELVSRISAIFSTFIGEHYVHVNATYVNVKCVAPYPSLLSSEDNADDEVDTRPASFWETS
T2 sequence (P08581 25-1390): as the sequence (P08581 25-1390 limits assumed, form in doubt) above

B1: H4H14639D (bispecific antibody, human IgG4, V domains shown)
VH 1: EVQLVESGGGLVQPGTSLRLSCAASGFTFDDYAMHWVRQAPGKGLEWVSGITWNSYNIDYADSVKGRFTISRDNAKNSLYLQMNSLRAEDTALYYCAKDDDYSNYVYFDYWGQGTLVTVSS
VH 2: EVQLVESGGGLVQPGGSLRLSCAASGFIVTTNYMTWLRQAPGKGLEWVSLIYSSGHTYYADSVKGRFTISRHNSKNTLYLQMDSLRAEDTAVYYCASAFAADVFDIWGQGTMVTVSS
VL: not shown
notes: human IgG4 Fc; also called No. 122; MET×MET bispecific antibody
For B1, the “% Inhibition (HEK293/SRE-Luc Blocking Activity, 1 h mAb pre-bind)” value in [1] is 95%. Further, the “EC50 (Ligand (HGF)-Independent HEK293/SRE-Luc Activation)” value in assay [1] came out at 57 pM. Moreover, in [1], the “Fold Response (Ligand (HGF)-Independent HEK293/SRE-Luc Activation)” value came out at 1.8 fold. For the same molecule, the “IC50 (HEK293/SRE-Luc Blocking Activity, 1 h mAb pre-bind)” value in assay [1] was determined as 24 pM. In assay [2], the “Relative MET Level, NCI-H596 cells, antibody 5 ug/ml, 18 hours, immunoblot” value is 0.24 relative to control (hFc). In addition, the “FACS Binding (MFI Fold Above Isotype Control)” value was 10 fold in assay [3]; 252 fold in assay [4]; 454 fold in assay [5]; 34 fold in assay [6]; 156 fold in assay [7]; 18 fold in assay [8]. Besides, the “FACS Binding (MFI Fold Above Isotype Control)” value in assay [9] stood at 12 fold. Also, in assay [10], the “FACS Binding (MFI fold above unstained, per footnote)” value came out at 188 fold.

B2: H4H13312P2 (antibody, human IgG4, V domains shown)
VH: EVQLVESGGGLVQPGGSLRLSCAASGFIVTTNYMTWLRQAPGKGLEWVSLIYSSGHTYYADSVKGRFTISRHNSKNTLYLQMDSLRAEDTAVYYCASAFAADVFDIWGQGTMVTVSS
VL: not shown
As to B2, in assay [11], the “EC50 (read off the curve), HGF-independent SRE-luciferase activation” value was ~400 pM.

B3: H4H14639D (bispecific antibody, V domains shown)
VH 1: EVQLVESGGGLVQPGTSLRLSCAASGFTFDDYAMHWVRQAPGKGLEWVSGITWNSYNIDYADSVKGRFTISRDNAKNSLYLQMNSLRAEDTALYYCAKDDDYSNYVYFDYWGQGTLVTVSS
VH 2: EVQLVESGGGLVQPGGSLRLSCAASGFIVTTNYMTWLRQAPGKGLEWVSLIYSSGHTYYADSVKGRFTISRHNSKNTLYLQMDSLRAEDTAVYYCASAFAADVFDIWGQGTMVTVSS
VL: not shown
Regarding B3, in [12], the “IC50 (read off the curve), inhibition of HGF-induced SRE-luciferase signal” value is ~400 pM.
